According to US20220306762A1 (CRYSTAL BIOSCIENCE, published 2022):

T1: His-tagged mouse CD38 (ACRO Biosystems CD8-M5223) (mouse, UniProt P56528 45-304)
T1 construct: bought protein; used for ELISA coating and as SPR analyte; also called Murine; not shown: His tag
T1 sequence (looked up): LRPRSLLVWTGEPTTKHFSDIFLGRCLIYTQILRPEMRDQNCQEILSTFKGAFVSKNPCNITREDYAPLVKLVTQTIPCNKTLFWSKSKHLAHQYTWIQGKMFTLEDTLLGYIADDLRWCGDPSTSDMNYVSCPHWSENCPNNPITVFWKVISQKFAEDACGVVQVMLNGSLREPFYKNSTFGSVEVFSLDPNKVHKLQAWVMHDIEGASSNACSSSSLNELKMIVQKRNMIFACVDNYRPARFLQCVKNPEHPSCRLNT


Experiments:
[1] = target: T2, His-tagged cynomolgus monkey CD38 (ACRO Biosystems, CD8-05223 [sic]) (cynomolgus monkey, UniProt Q5VAN0 43-301); assay: SPR, IgG
T2 construct: bought protein; used for ELISA coating and as SPR analyte; not shown: His tag

[2] = target: T3, His-tagged human CD38 (ACRO Biosystems CD8-H5224) (human, UniProt P28907 43-300); assay: SPR, IgG
T3 construct: bought protein; used for ELISA coating and as SPR analyte; not shown: His tag

[3] = target: T2, His-tagged cynomolgus monkey CD38 (ACRO …); assay: SPR (second run), His-tagged CD38
[4] = target: T3, His-tagged human CD38 (ACRO Biosystems …); assay: SPR (second run), His-tagged CD38
[5] = target: T1, His-tagged mouse CD38 (ACRO Biosystems …); assay: SPR (second run), His-tagged CD38

| Binder | Kd [1] | Kd [2] | Kd [3] | Kd [4] | Kd [5] |
| --- | --- | --- | --- | --- | --- |
| 40769p2.1.E8 IgG (antibody, V domains shown, IgG) VH: EVQLLESGGGLVQPGGSLRLSCTGFGFTFTDARMSWVRQAPGKGLEWVADISSYGDNTYYADSVKGRFTISRDNSANTLYVQMNSLRAEDTAVYYCAKRMEREVMTIKLDYHAMDVWGQGTTVTVSS VL: QSVLTQTPSVSGTPGQRVTISCSGVFNIRNYVSWYQQLPGTAPKLLIFKDDQRPSGVPDRFSGSRSGTSASLAISGLQSEDEADYYCAAWDIFLNVWVFGGGTKLTVL | 0.35 nM | 0.14 nM | – | – | – |
| 40596p2.1.B8 IgG (antibody, V domains shown, IgG) VH: EVQLLESGGGLGQPGGSLRLSCAASGFDFSSYAMSWVRQAPGKGLEWVAGGGWSGSFIYYADSVKGRFTISRDNSKNTLYLQMNSLRAEDTAVYYCTRNPGFGEMDVWGQGTTVTVSS VL: EIVLTQSPGTLSLSPGERATLSCRASQTVGSNLAWYQQKPGQAPRLLIHGANNRATDIPDRFSGSGSGTEFTLTVSSLQSEDFAIYYCQQYNSWPPLTFGGGTKVEIK | 159 nM | 18.5 nM | – | – | – |
| 40769p2.2.C11 IgG (antibody, V domains shown, IgG) VH: EVQLLESGGGLVQPGGSLRLSCAASGFTFSDYEMNWVRQAPGKGLEWVSSISITGSWTYYADSVKGRFTISRDNSKNTLYLQMNNLRAEDTAVYYCANYKSYYGMDVWGHGTTVTVSS VL: not shown | 2.18 nM | 0.67 nM | – | – | – |
| 40769p2.2.H4 IgG (antibody, V domains shown, IgG) VH: EVQLLESGGGLVQPGGSLRLSCAASGFDFSSYWMNWVRQAPGKGLEWVSTISSGGSIIYYADSVKGQFTISRDNSKNTLYLQMNSLRAEDTAVYYCAKDNWNDYYGMDVWGQGTTVTVSS VL: QSVPTQPPSASGTPGQRVTISCSGSSSNIRDNYVYWYQQVPGTAPKLLIYKDDQRPSGVPDRFSGSKSGTSASLAISGLQSEDEADYYCATWDGSLNARVFGGGTKLTVL | 167 nM | 57 nM | – | – | – |
| 40769p2.1.C1 IgG (antibody, V domains shown, IgG) VH: EVQLLESGGGLVQPGGSLRLSCAASGFSFSDYWMNWVRQAPGKGLEWVSTISSGGNMIYYADSVKGRFTISRDNSKNTLYLRMNSLRAEDTAVYYCAKDNWNDYYGMDVWGQGTTVTVSS VL: QSVLTQPPSASGTPGQRVTISCSGSSSNIRDNYVYWYQQVPGTAPKLLIYKDDQRPSGVPDRFSGSKSGSSASLAISGLQSEDEADYYCATWDGSLNARVFGGGTKLTVL | 29.3 nM | 60.7 nM | – | – | – |
| 40596p1.F6 (scFv, V domains shown) VH: EVQLLESGGGLVQPGGSLRLSCAASGFDFSKNAMSWVRQAPGKGLEYVAGSGWSGSFIFYADSVKGRFTVSRDNSENTLYLQMSSLRAEDTAVYYCAKNPGFGEMDVWGQGTTVTVSS VL: EIVLTQSPGSLFLSPGERATLTCRASQTIGSNLAWYQQKFGQAPRLLIYGASTRAADIPDRFSGSGSGTEFTLTISSLQSEDFAVYYCQQYNSWPPLTFGGGTKVEIK | – | – | 281 nM | 80.4 nM | 27.2 nM |
| 40596p1.D2 (scFv, V domains shown) VH: EVQLLESGGGLVQPGGSLRLSCAASGFDFSKNAMSWVRQAPGKGLEYVAGSGWSGSFIFYADSVKGRSTVSRDNSENTLYLQMSSLRAEDTAVYYCAKNPGFGEMDVWGQGTTVTVSS VL: ELVLTQSPGSLFLSPGERATLTCRASQTIGSNLAWYQQKFGQAPRLLIYGASTRAADIPDRFSGSGSGTEFTLTISSLQSEDFAVYYCQQYNSWPPLTFGGGTKVEIK | – | – | 172 nM | 54.7 nM | 45.2 nM |

Other lines, results leading:

| Kd [1] | Kd [2] | Kd [3] | Kd [4] | Kd [5] | Binder |
| --- | --- | --- | --- | --- | --- |
| 348 nM | 41.3 nM | – | – | – | 40769p2.2.D3 IgG (antibody, V domains shown, IgG) VH: EVQLLESGGGLIQPGGSLRLSCTASGFDFSSYGMHWVRQAPGKGLEWVGIISDSGGTTYYADSVKGRFTISRDNSKNTLYLQMNSLRAEDTALYYCASYIMDVWGQGITVTVSS VL: QSVLTQPPSASGTPGQRVTISCSGSNSNVGVNSVYWYQQLPGTAPKLLIYGSGRRPSGVPDRFSVSKSGTSASLAISGLQSEDEADYYCAAWDGGLNAWVFGGGTKLTVL |
| 22.9 nM | 21.9 nM | – | – | – | 40769p2.2.A6 IgG (antibody, V domains shown, IgG) VH: EVQLLESGGGLVQPGGSLRLSCAASGFTFSDYEMNWVRQAPGKGLEWVSAISITGSWTYYADSVKGRFTISRDNSENTLYLQMNNLRAEDTAVYYCANYKSYYGMDVWGRGTTVTVSS VL: QSVLTQPPSASGTPGQRVTISCSGSRSNIRNNLVNWYQQLPGTAPKLLIYNTQRPSGVPDRFSGSKSGTSASLAISGLQSEDEADYYCASWDASLNAWVFGGGTKLTVL |
| 259 nM | 11.3 nM | – | – | – | 40769p2.2.A9 IgG (antibody, V domains shown, IgG) VH: EVQLLESGGGLVQPGGSLRLSCTASGITFSRFNMFWVRQAPGKGLEFVASIRDDGSWTYYADSVKGQFTISRDNSKNTLYLQMNSLRAEDTAVYYCAKDYNSKDFIYHYVMDVWGQGTTVTVSS VL: QSVLTQPPSASGTPGQRVTISCSGRNSNIGNNVVNWYQQLPGTAPKLLIYRNQERPSGVPDRFSGSKSGTSASLAISGLQSEDEADYYCSTWDDSLNGWVFGGGTKLTVL |
| – | – | 102 nM | 75.3 nM | 141 nM | 40617p1.2.A1 (scFv, V domains shown) VH: EVQLLESGGGLVQPGGSLRLSCAASGFTFSSYWMTWVRQAPGKGLEWVSAISSYGGQYTYYADSVKGRFTISRDNSKDTLYLHMDSLRAEDTAVYYCAKDWDDGMDVWGQGTTVTVSS VL: EIVMTQSPAVLSVSPGERATLSCRASQSVNIKLAWYQQKPGQAPRLLIYGASTRAAGIPDRFSGSGSGTDFTLTISSLQSDDFAVYYCQQYYDLPPYSFGGGTKVEIK |
| 467 nM | 1.18 nM | – | – | – | 40769p2.1.E5 IgG (antibody, V domains shown, IgG) VH: EVQLLESGGGLVQPGGSLRLSCTASAHIFKYNWMSWVRQAPGKGLEWVSSINSDGTITYYTDSVKGRFTISRDNSKNTLYLQMNSLRAEDTAVYYCAKDNWNDYAIDVWGQGTTVTVSS VL: QSVLTQPPSASGTPGQRVTISCSGSRSDIRNNYVSWYQQLPGTAPKLLIYSNGQRPSGVPDRFSGSKSGTSASLAISGLQSEDEADYYCAIWDDSLNAWVFGGGTKLTVL |
| 148 nM | 65.7 nM | – | – | – | 40769p2.2.H8 IgG (antibody, V domains shown, IgG) VH: EVQLLESGGGLVQSGGSLRLSCAASGFNFNSHDMNWVRQAPGKGLEWVSSISADRGRTYYADSVKGRFTIFRDDSKKILYLQMNSLRAEDTAVYYCTKYYNMDVWGQGTTVTVSS VL: not shown |
| – | – | 147 nM | 26.4 nM | 930 nM | 40596p1.E4 (scFv, V domains shown) VH: EVQLLESGGGLVQPGGSLRLSCAASGFDFSGSAMSWVRQAPGKGLEYVAGLGWSGSFIYYADSVKGRSTISRDNSKNTLYLQLNSLRAEDTAVYYCARNPGFGEMDVWGQGTTVTVSS VL: EIVLTQSPGSLSLSPGERATLSCRASQTVGSNLAWYQQKPGQAPRLLIYGASTRATDIPDRFSGSGSGTEFTLTISSLQSEDFAVYYCQQYNSWPPLTFGGGTKVEIK |
| – | – | 203 nM | 56.9 nM | 23.7 nM | 40596p1.A5 (scFv, V domains shown) VH: EVQLLESGGGLVQPGGSLRLSCAASGFDFSNNAMSWVRQAPGKGLEYVAGSGWSGSFIFYADSVKGRFTVSRDNSENTLYLQMNSLRAEDTAVYYCAKNPGFGEMDVWGQGTTVTVSS VL: EIVLTQSPGSLSLSPGERATLRCRASQSIGSNLAWYQQKPGQAPSLLIYGASTRAADIPDRFSGSGSGTEFTLTITSLQSEDFAVYYCQQYNSWPPLTFGGGTKVEIK |
